From IntAct's records for PubMed 18570893

Biological target: call3_human CALML3 (UniProt P27482)
Sequence (P27482 whole entry): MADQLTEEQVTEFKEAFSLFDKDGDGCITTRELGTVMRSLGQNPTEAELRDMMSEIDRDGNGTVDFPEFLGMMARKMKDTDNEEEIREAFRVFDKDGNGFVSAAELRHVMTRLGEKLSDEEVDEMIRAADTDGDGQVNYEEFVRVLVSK

effect of a mutation on the interaction: disrupting interaction
Substance: Unconventional myosin-X (Homo sapiens), Q9HD67 F795A
